The values below come from the nanobody polyreactivity screen of Harvey et al. (2022).

The nature of this data set: yeast display, Sf9 membrane polyspecificity reagent, FACS + sequencing; frameworks hold sequencing errors. The gist of the method:
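Nanobodies from a synthetic yeast display library (Saccharomyces cerevisiae BJ5465), induced 36–48 hours with galactose, were stained 1 hour at 4 °C with 10% biotinylated, detergent-solubilized Sf9 membrane reagent, enriched on streptavidin microbeads, then FACS-sorted. Anti-HA (expression) and streptavidin (reagent binding) fluorescence set low and high (top ~1%) gates. Polyreactivity labels come from the gate of origin. Genes were colony-PCR amplified, MiSeq 2 × 250 sequenced and filtered by CDR length.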
“QVQLVESGGGLVQAGGSLRLSCAASGRIFGVYAMGWYRQAPGKERELVAAISRGGSTKYADSVKGRFTISRDNAKNTVYLQMNSLKPEDTAVYYCAARRWGRVYTTYTGGYWGQGTQVTVSS”: the “polyreactivity (PSR sort gate)” value is “high polyreactivity”.

For the sequence “QVQLVESGGGLVQAGGSLRLSCSASGSTFGDYAMRWYRQAPGKREFVAAISFSGGNTYYADSVKVRFTISRDNAKNTVYLQMNSLKPEDTAVYYCNADWDWFYSTGSLGFPDFYYWGQGTQVSVSS”, the “polyreactivity (PSR sort gate)” value is on record as “low polyreactivity”.

In the case of “QVQLVESGGGLVQAGGSLRLSCAASGSTFLGYAMGWYRQAPGKERELVAVIDNGGDTYYADSVKGRFTISRDNAKNTVYLQINSLKPEDTEVYYCAADLSYLGYWEYDYWGQGTQVTVSS”, the “polyreactivity (PSR sort gate)” value is “low polyreactivity”.

With “QFQLVESGGGLVQAGGSLRLSCAASGFIFYKYAMGWYRQAPGKERELVAAISSIGGRTYYADSVKGRFTISRDNAKNTVYLQMNSLKPEDTAVYYCAARYRRTIPWFAPGNDHKYWGQGTQVTVSS”, the “polyreactivity (PSR sort gate)” value is given as “high polyreactivity”.

As for “QVQHVESGGGLVQAGGSLRLSCAASGSIFGQYAMGWDRQSPGKERELVAAISTSGGSTYYADSVKGRFTISRDNAKYSVYLQMYSLKPEDTAVYYCNAFNYGTQTYGYWGQGTQVTVSS”, the “polyreactivity (PSR sort gate)” value is “high polyreactivity”.

In the case of “QVQHEESGGGLVQAGGSLRLSCAASGSIFSDYALGWYRPAPGKERELVAAITINGGSTYYADSVKGRFTISRDNAKITVYLQLNSLKPEDTAVEYCNAGWGRLYDYWGQGTQVTVSS”, the “polyreactivity (PSR sort gate)” value is “low polyreactivity”.

With “QVQLVESGGGLVQAGGSLRLSCAASGYTFGLYTMGWYRQAPGKEREFVATIDWSEGGTHYADSVKGRFTISRDIAKISVYLQMNSLKPEYTAVYYCNADWYAYPYGYWGQGTQVTVSS”, the “polyreactivity (PSR sort gate)” value is “low polyreactivity”.

Consider “QVQLVESGGGLVQAGGSLRLSCAASGFIFTKYTMGWYRQAPGKERELVAAIRSDGVRTYYADSVKGRFTISRDNAKNTVYLQMNSLKPEDTAVYYCNRVSAVRIGAGDYWGQGTQVTVSS”, for which the “polyreactivity (PSR sort gate)” value is recorded as “high polyreactivity”.

On to “QVQLVESRGGLVQAGGSLRLSCAASGFTFYSNAMGWYRQAPGKERELVAAIAKRGGSTYYADSVKGRFTISRDNAKNTVYLQMISLKPEDTAVYYCNKDYYARKYDYWGQGTLVTVSS”, for which the “polyreactivity (PSR sort gate)” value is “high polyreactivity”.

Regarding “QVQLVESGGGLVQAGGSLRLSCAASGRIFGGNAMVWYRQAPGKERELVAAITTRGGSTYADSVKGRFTISRDNAKNTVYLQMNSLKPEDSAVYYCNKRYVIRRRGYDYWGQGTQVTVSS”, the “polyreactivity (PSR sort gate)” value is recorded as “low polyreactivity”.

In the case of “QVQLVESGGGLVQAGGSLRLSCAASGSTFGYNTMGWYREAPGKERELVAAITGTGRTNYADSVKGRFTISRDNAKNTVYLQMNSLKPEDTAVYYCNARQAGTRYKYGYYGRYYWGQGTQVTVSS”, the “polyreactivity (PSR sort gate)” value is recorded as “high polyreactivity”.

Turning to “QVQLVESGGGLVQAGGSLRLSCAASGRTFGGNAMGWYRQAPGKEREYVAAISRSGTSTYYADSVKGRFTISRDNAKNTVYLQMNSLKPEDTGVYYCAALNYHKFAHKSDYWGQGTQVTVSS”, the “polyreactivity (PSR sort gate)” value was “low polyreactivity”.

For “QVQLVESGGGLVQAGGSLRLSCAASGSIFAANALGWYRQAPGKERELVAAITSGGGSTYYADSVKGRFTISRDNAKNTVYLQMNSLKPEDTAVYYCAARSLVQDHAYGNNYWGQGTQVTVSS”, the “polyreactivity (PSR sort gate)” value was “low polyreactivity”.

With “QVQLVESGGGLVQAGGSLRLSCAASGSTFGPNAMGWYRQAPGKERELVATISFRGGTTYYADSVKGRFTISRDNAKNTVYLQMNSLKPEDTAVYYCAVKVGYVRLLYHYYYWGQGTQVTVSS”, the “polyreactivity (PSR sort gate)” value was “high polyreactivity”.

For the sequence “QVQLVESGGGLVQAGGSLRLSCAASGRTFYANAMGWYRQAPGKERELVAGISYSGGNTYYADSVKGRFTISRDNAKNTVYLQMNRLKPEYTAVYYCAAATDWEYWTYEYWRQGTQVTVSS”, the “polyreactivity (PSR sort gate)” value was “low polyreactivity”.

As to “QVQLVESGGGLVQAGGSLSLICAASGRFSNAMGWYIQAPGKERELVAAITLSGTSTYYADSVKGRFTISRDNAKNTVYLQMNSLKTEDTAVYYCAAGSGYGVTWVYSPYTGVDYWGQGTQVTVSS”, the “polyreactivity (PSR sort gate)” value is “low polyreactivity”.

Turning to “QVQLVESGGGLVQAGGSLRLSCAASGRTFGWNGMGWYRQAPGKERELVAVISSGGSTKYADSVKGRFTISRDNAKNTVYLQMNSLKPEDTAVYYCAKDWVRSGRRKMDYWGQGTQVTVSS”, the “polyreactivity (PSR sort gate)” value is recorded as “low polyreactivity”.

As to “QVQLVESVVGLVQAGGSLRLSCAASGFIFVVYAMGWYRQAPGKERELVAAITNGGITYYADSVKGRFTISRDNAKNTVYLQMNSLKPEDTAVYYCNAQYTDYDGYVGYYYWGQGTQVTVSS”, the “polyreactivity (PSR sort gate)” value is “low polyreactivity”.

With “QVQLVESVGGLVQAGGSLRISCAASGSTFPWYAMGWYRQAPGKERELVASITSGTTTNYADSVKGRFTISRDNAKNTVYLQRNSLKPEDTADYYCAASWVYQYDYWGQGTQVSVSS”, the “polyreactivity (PSR sort gate)” value was “low polyreactivity”.

“QVQLVESGGCLVQAGGSLRLSCSASGSTITYYAMGWYRQAPGKERELVAAISGRGGRTDYADSVKGRFTISRDNAKNTVYLQMNSLKPEATAVYYCARAGRVQPGSEDDYWGQGTQVTVSS”: the “polyreactivity (PSR sort gate)” value is given as “high polyreactivity”.

On to “QVQLVESGGGLVQAGGSLSLSSAATGNIFRNNAMGWYRQAPGKERELGAAISYSGGRTFYADSVKGRFTISRDNAKNTVYLQMNSLKPEDTAVYYCAVTYGRNADDYEYWGQGTQVTVSS”, for which the “polyreactivity (PSR sort gate)” value is listed as “high polyreactivity”.

With “QVQLVESGGGLVQAGGSLRLSCAASGFSFGIYAMGWYRQAPGKERELYADSVKGRFTISRDNAKNTVYLQMNSLKPEDTAVYYCAADYWYGAGLPHGTEFDYWGQGTQVTVSS”, the “polyreactivity (PSR sort gate)” value is recorded as “low polyreactivity”.

Take “QVQLVESGGGLVQAGGSLRLSCAASGFTFTSYAMGWYIQAPGKERELVAAINRSGGSTTYADSVKGRFTISRDNAKNTVYLQMNSQKPEDTAVYYCAKAFRGHYWGQGTQVTVSS”: the “polyreactivity (PSR sort gate)” value is on record as “high polyreactivity”.

Take “QVQLVETGGGLVQAGGSLRLSCAASGYIFYPYTMGSYRPAPGKATELVAAITWSGSTYSADSVQGRFTMSRDTAKNTVYLQMKSLKPEDTAVYYCAADFDSYDSYTYLQYDYWGQGTQVTVSS”: the “polyreactivity (PSR sort gate)” value was “low polyreactivity”.

“QVQLVESGGGLVQAGGSLRLSCAASGLILPYYAMGWYRQAPGTERELVAAISRTAGRTSYADSVKGRFTISRDNAKNTVYLQMNSLKPEDTAVYYCAAVGQSGGRRYDYWGQGTQVTVSS”: the “polyreactivity (PSR sort gate)” value is recorded as “high polyreactivity”.

For “QVQLVDSGGGLVQAGGSLRLSCAASGSIFQYYAMGWYRQAPGKEMELVAAITSVSSTSYADSVKGRFTISRDNAKNTVYLQMNSLKPEDTAVYYCDAAFRRGLLKMDYWGQGTQVTVSS”, the “polyreactivity (PSR sort gate)” value was “low polyreactivity”.

Turning to “QVQLVESGGGLVQAGGSLRLSCAASGNTFVQNTMGWYRPATGKETELVAAISTRGGSTYYADSLKGRFTISRDNAKNTVYLQMNSLKPVDTAVYYCAARSKVRRSYDYWGQGTQVTVSS”, the “polyreactivity (PSR sort gate)” value was “high polyreactivity”.

As to “QVQLVESGGGLVQAGGSLRLSCDASGIIFPRYAMGGYRQAPGKERELVAAITIGGRTNYADSVKGRFTISRDNAKNTVYLQMTSLKPEDTAVYYCAAQTYVPYYEYDYWGQGTQVTVSS”, the “polyreactivity (PSR sort gate)” value is listed as “low polyreactivity”.

Regarding “QVQLVESGGGLVQAGGSLRLTCAASGLTFNHNAMGWCRQAPGKERELVAAISRRGGSTYYADSVKGRFTISRDNAKNTVYLQMNSLKPEDTAVYYCAARRAWSWKIYDYWGQGTQVTVSS”, the “polyreactivity (PSR sort gate)” value was “high polyreactivity”.

With “QVQLVESGGGLVQAGGSLRLSCAASGRTLLLNTMGWYRQAPGKERELFAAISWRDGSTYYADSVKRRFTISRDNAKITVYLQMNSLIPEDTAVYYCNARLSGRSPYDLRFDYWGQGTQVTVSS”, the “polyreactivity (PSR sort gate)” value was “low polyreactivity”.

For the sequence “QVQLVESGGGLVQAGGSLRLSCAASGRTLRYNAMGWDRQAPGKERELVAAISTRGTNTYYADSVKGRFTISRDNAKNTVYLQMNSLKPEDTAVYYCAAKKGGYPYSVYSGTRHNYWGQGTQVTVSS”, the “polyreactivity (PSR sort gate)” value is “high polyreactivity”.

Take “QGQLVESGGGLVQAGGSLRLSCAASGSIFLGYAMGWYRQAPRKERELVAVITKSRGRTYYADSVKGRFTISRDNAKNTVYFQMNSLKPEDTAVYYCAKQPGSAYDYWGQGTQVTVSS”: the “polyreactivity (PSR sort gate)” value is “high polyreactivity”.

Take “QVKLVESGGGLVQAGGSLRLSCAASGSIFTYYAMGWYRQAPGKERELVADIRWSGGSTYYADSVKGRFTISRDNAKNTVYLQMNSLKPEDTAVYYCNARYYSYWPIYNFDYWGQGTQVTVSS”: the “polyreactivity (PSR sort gate)” value is listed as “low polyreactivity”.

Regarding “QVQLVESGGGLVQAGGSLRLSCAASGSTFYGYAMGRYRQSPGKERELVAAITRSGGSTYYADSVKGRFTISRDNAKNTVYLQMNSLKPEDTEVYYCNKYGYKGGVGYDYWGQGTQVTVSS”, the “polyreactivity (PSR sort gate)” value is recorded as “high polyreactivity”.

On to “QVQLVESGGGLLQAGGSLRLSCAASGFSFLCYAMGWYRQEPRKERELVASITYGGDSTYYADSVKGRFTISRDNAKNTVYLQMNSLKPEDTAGYYCNARPSYWWGGRLYGYWGQGTQVTVSS”, for which the “polyreactivity (PSR sort gate)” value is recorded as “high polyreactivity”.

As for “QVQLVESGGGLVQAGGSLRLSCAASGSIVPYNVMGWYRQAPGKERELVAAITRRGGSTYYADSVKGRFTISRDNAKNTVYLQMNSLKPEDSAVYYCAAVPYPRGKGYDYWGQGTQVTVSS”, the “polyreactivity (PSR sort gate)” value was “high polyreactivity”.

On to “QVQLVESGGGLVQAGGSLRLSCAAAGRIFVQYDMGWYRQAAGKERELVAAIIDSGDITYYADSVKGRYTSSRDNAKNTVYLQMNSLKPEDTAVYDCAASAAYYGFYKSVTYDYWGQGTQVTVSS”, for which the “polyreactivity (PSR sort gate)” value is listed as “low polyreactivity”.

As to “QVQLVESGGGLVQAGGSLRLSCAASGSIFTRYVMGWYRQARGKERELVASISGRGSSTYYADSVKGRFTISRDNAKNTVYLQMNSLKPEDTAVYYCAAEIVVFYSEGQRNTFYYWGQGTQVTVSS”, the “polyreactivity (PSR sort gate)” value was “high polyreactivity”.

Take “QVQLVESGGGLVQAGGSLRLSCAASGSTFDYNAMGCYRQAPRKERELDAVIRSGGTTYYADSVKGRFTISRVNAKNTVYLQMNSLKPEDTAVYYCAASFQRRAGSYGGSRRYGYLGQGTQVTVSS”: the “polyreactivity (PSR sort gate)” value is on record as “high polyreactivity”.

Regarding “QVQLVESVGGLVQPGGSLRLSCAASGFTFRNNAMGWYRQSPVKERELVAAITGSGGRTYYTDSVKGRFTISSDNAKNTVYLQMHSLKPEDTAVYYCNTRYRGVHYTEMDYWGQGTQVSVSS”, the “polyreactivity (PSR sort gate)” value is “high polyreactivity”.

For “QVHLVESGGGLVQAGGSLRLSCAASGLILPYYAMGWYRQARGKERELVAAISRTGGRTSYADSVKGRFTISRDNAKNTVYLQMNSLKPEDTAVYYCAAVGQSGGRRYDYWGQGTQVTVSS”, the “polyreactivity (PSR sort gate)” value is listed as “high polyreactivity”.
